Source: article PMC5762521

Target: T1, Heat shock transcription factor-1 (HSF-1) (human (endogenous in HCT-116)), Q00613
T1 chain: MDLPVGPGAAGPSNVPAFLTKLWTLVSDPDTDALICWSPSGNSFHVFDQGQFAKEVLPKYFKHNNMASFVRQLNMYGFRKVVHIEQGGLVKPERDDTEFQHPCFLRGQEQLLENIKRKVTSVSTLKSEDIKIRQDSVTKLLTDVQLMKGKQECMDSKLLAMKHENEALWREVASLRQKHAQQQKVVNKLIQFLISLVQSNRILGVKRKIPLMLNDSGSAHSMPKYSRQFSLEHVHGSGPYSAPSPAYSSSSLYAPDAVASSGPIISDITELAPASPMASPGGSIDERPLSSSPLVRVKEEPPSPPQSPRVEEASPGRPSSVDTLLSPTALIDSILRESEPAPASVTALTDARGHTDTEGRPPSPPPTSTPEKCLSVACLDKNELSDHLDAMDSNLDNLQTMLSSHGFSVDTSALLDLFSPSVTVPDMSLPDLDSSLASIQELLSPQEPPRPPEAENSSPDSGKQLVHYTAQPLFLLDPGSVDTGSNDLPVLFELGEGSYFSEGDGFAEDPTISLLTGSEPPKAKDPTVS
Experiment: cross-linking; HCT-116 cell lysates (control, heat shock, vitexin-treated); 10 ug protein with 2 mM glutaraldehyde, room temperature, 30 min, stopped with lysine; SDS-PAGE and anti-HSF-1 blot; vitexin treatment said to inhibit oligomerization
Settings: remark: other sources report otherwise

- stoichiometry N: 3
B1: Heat shock transcription factor-1 (HSF-1), Q00613 1-529 (natural protein)
chain: T1 chain
